The record followed here is publication PMC5177531.

Experiment [1] addresses mMOR-1 (Mus musculus), P42866. The experiment in a line: competition. The conditions noted are these: modification not given.
In experiment [2] the target is T1, 6TM/E11 mu opioid receptor site 6TM variant (Mus musculus), P42866.
T1 chain: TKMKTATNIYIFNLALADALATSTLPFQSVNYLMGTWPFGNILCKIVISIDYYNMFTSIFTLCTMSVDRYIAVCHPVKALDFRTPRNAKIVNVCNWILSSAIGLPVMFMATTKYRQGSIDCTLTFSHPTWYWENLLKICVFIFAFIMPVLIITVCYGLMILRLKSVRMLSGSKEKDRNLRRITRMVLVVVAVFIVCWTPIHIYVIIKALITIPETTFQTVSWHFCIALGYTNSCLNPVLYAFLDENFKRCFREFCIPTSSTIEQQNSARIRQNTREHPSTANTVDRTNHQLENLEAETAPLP
The experiment in a line: competition. The conditions noted are these: modification not given.

By Ki is commonly meant a measure of affinity in units of concentration, obtained from inhibition or displacement.

mMOR-1 (Mus musculus), P42866, sequence (P42866 whole entry): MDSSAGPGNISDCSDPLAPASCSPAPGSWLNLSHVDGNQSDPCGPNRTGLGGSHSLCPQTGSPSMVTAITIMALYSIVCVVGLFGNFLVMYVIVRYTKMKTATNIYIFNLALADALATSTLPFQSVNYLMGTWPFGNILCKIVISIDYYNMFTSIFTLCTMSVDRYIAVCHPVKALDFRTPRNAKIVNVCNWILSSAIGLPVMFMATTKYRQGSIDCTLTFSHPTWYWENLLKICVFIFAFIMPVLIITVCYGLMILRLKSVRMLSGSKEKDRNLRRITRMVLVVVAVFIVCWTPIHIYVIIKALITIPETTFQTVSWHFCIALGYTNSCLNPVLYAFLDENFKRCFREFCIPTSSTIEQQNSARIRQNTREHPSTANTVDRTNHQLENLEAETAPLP

B1: Dermorphin (peptide)
chain: YAFGYPS
For the molecule B1, the inhibitory constant (Ki) is 4 nM in experiment [1] and above 500 nM in experiment [2].
